Measured values: the supplement of paper PMC9233669
This sample holds only a part of the variants without activity.

How the values were obtained:
biotinyl-Trp-oxazolone = experiment: self-aminoacylation, catalytic enhancement (BWO) (fold over background); higher = more active; k-Seq, kA / k0A0; sequences stand for … in GGGAAUGGAUCCACAUCUACGAAUUC…UUCACUGCAGACUUGACGAAGCUG
Procedure, shortened: (§1)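 Each biotinyl-aminoacyl-oxazolone, at 2–1250 μM, was incubated with mutagenized RNA pools (0.43 μM) carrying a 21-nt variable region. The 50 μL reactions contained HEPES/NaCl/KCl/MgCl2/CaCl2 buffer with 5% acetonitrile at pH 6.9–7.0 and ran for 90 minutes at room temperature. After streptavidin capture, RNA was measured by qPCR in triplicate and by Illumina sequencing, and catalytic enhancement was calculated as median kA over the uncatalyzed rate from a pseudo-first-order fit of per-sequence fraction reacted.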

biotinyl-Val-oxazolone = experiment: self-aminoacylation, catalytic enhancement (BVO) (fold over background); higher = more active; k-Seq, kA / k0A0; sequences stand for … in GGGAAUGGAUCCACAUCUACGAAUUC…UUCACUGCAGACUUGACGAAGCUG
Procedure, shortened: as §1

biotinyl-Met-oxazolone = experiment: self-aminoacylation, catalytic enhancement (BMO) (fold over background); higher = more active; k-Seq, kA / k0A0; sequences stand for … in GGGAAUGGAUCCACAUCUACGAAUUC…UUCACUGCAGACUUGACGAAGCUG
Procedure, shortened: as §1

biotinyl-Ile-oxazolone = experiment: self-aminoacylation, catalytic enhancement (BIO) (fold over background); higher = more active; k-Seq, kA / k0A0; sequences stand for … in GGGAAUGGAUCCACAUCUACGAAUUC…UUCACUGCAGACUUGACGAAGCUG
Procedure, shortened: as §1

biotinyl-Phe-oxazolone = experiment: self-aminoacylation, catalytic enhancement (BFO) (fold over background); higher = more active; k-Seq, kA / k0A0; sequences stand for … in GGGAAUGGAUCCACAUCUACGAAUUC…UUCACUGCAGACUUGACGAAGCUG
Procedure, shortened: as §1

biotinyl-Leu-oxazolone = experiment: self-aminoacylation, catalytic enhancement (BLO) (fold over background); higher = more active; k-Seq, kA / k0A0; sequences stand for … in GGGAAUGGAUCCACAUCUACGAAUUC…UUCACUGCAGACUUGACGAAGCUG
Procedure, shortened: as §1

| Sequence | self-aminoacylation (biotinyl-Trp-oxazolone) | self-aminoacylation (biotinyl-Val-oxazolone) | self-aminoacylation (biotinyl-Met-oxazolone) | self-aminoacylation (biotinyl-Ile-oxazolone) | self-aminoacylation (biotinyl-Phe-oxazolone) | self-aminoacylation (biotinyl-Leu-oxazolone) |
| --- | --- | --- | --- | --- | --- | --- |
| ACUUUUGCUAAUAGUCGCAAG [Fam3.1 aminoacylation ribozyme variant] | 2.56 | 2.57 | 2.59 | 2.75 | 3.71 | 2.68 |
| AGGUUUGCUAACAGUCGCAAG [Fam3.1 aminoacylation ribozyme variant] | 4.91 | 1.25 | 1.68 | 1.57 | 15.2 | 1.66 |
| AGGUUUGCUAAUAGUCGAAAG [Fam3.1 aminoacylation ribozyme variant] | 3.4 | 1.02 | 1.16 | 1.2 | 13.6 | 0.991 |
| AGGUUUGCUAAUAGUCGCAAU [Fam3.1 aminoacylation ribozyme variant] | 2.08 | 1.85 | 1.63 | 2.08 | 2.94 | 1.86 |
| AGGUUUGCUAUUAGUCGCAAG [Fam3.1 aminoacylation ribozyme variant] | 1.08 | 1.17 | 1.17 | 1.28 | 3.21 | 1.49 |
| AGUAACCUAGGUCAUCGGGUG [Fam2.2 aminoacylation ribozyme variant] | 7.15 | 3.63 | 5.37 | 4.57 | 33.3 | 6.07 |
| AGUACACUGGUCAUCGAGUGA [Fam2.1 aminoacylation ribozyme variant] | 5.76 | 2.81 | 4.07 | 3.01 | 19.1 | 4.42 |
| AGUACCCCGGUCAUCGAGUGA [Fam2.1 aminoacylation ribozyme variant] | 7.21 | 3.75 | 5.52 | 3.7 | 43.9 | 6.8 |
| AGUACCCGGGUCAUCGAGUGA [Fam2.1 aminoacylation ribozyme variant] | 7.64 | 3.98 | 7.25 | 4.51 | 49.1 | 7.7 |
| AGUACCCUGGACAUCGAGUGA [Fam2.1 aminoacylation ribozyme variant] | 5.83 | 2.8 | 5.06 | 2.69 | 21.2 | 6.32 |
| AGUACCCUGGCCAUCGAGUGA [Fam2.1 aminoacylation ribozyme variant] | 4.09 | 3.11 | 3.41 | 2.53 | 10.2 | 4.09 |
| AGUACCCUGGUCAUCAAGUGA [Fam2.1 aminoacylation ribozyme variant] | 2.89 | 1.75 | 2.28 | 1.61 | 3.2 | 2.35 |
| AGUACCCUGGUCAUCGAGCGA [Fam2.1 aminoacylation ribozyme variant] | 1.89 | 1.9 | 2.19 | 1.94 | 1.16 | 2.28 |
| AGUACCCUGGUCAUCGAUUGA [Fam2.1 aminoacylation ribozyme variant] | 1.58 | 0.981 | 0.999 | 1.09 | 1.09 | 1.07 |
| AGUACCCUGGUCAUCGGGUGA [Fam2.1 aminoacylation ribozyme variant] | 19.6 | 9.99 | 17.7 | 9.32 | 82.1 | 19 |
| AGUACCCUGGUCAUCUAGUGA [Fam2.1 aminoacylation ribozyme variant] | 8.37 | 3.93 | 7.51 | 3.73 | 47.9 | 8.87 |
| AGUACCCUGGUCUUCGAGUGA [Fam2.1 aminoacylation ribozyme variant] | 7.11 | 3.27 | 5.41 | 3.54 | 31.2 | 5.96 |
| AGUCAACUAGGUCAUCGGGUG [Fam2.2 aminoacylation ribozyme variant] | 9.37 | 4.95 | 7.24 | 5.91 | 49.9 | 8.39 |
| AGUCACCUACGUCAUCGGGUG [Fam2.2 aminoacylation ribozyme variant] | 5.27 | 4.21 | 4.95 | 3.49 | 32.4 | 6.83 |
| AGUCACCUAGCUCAUCGGGUG [Fam2.2 aminoacylation ribozyme variant] | 2.81 | 3.12 | 2.42 | 2.6 | 13.9 | 2.79 |
| AGUCACCUAGGCCAUCGGGUG [Fam2.2 aminoacylation ribozyme variant] | 5.32 | 3.96 | 3.86 | 3.31 | 25 | 3.53 |
| AGUCACCUAGGGCAUCGGGUG [Fam2.2 aminoacylation ribozyme variant] | 6.69 | 3.45 | 3.71 | 4.43 | 34.4 | 4.67 |

| Sequence | self-aminoacylation (biotinyl-Trp-oxazolone) | self-aminoacylation (biotinyl-Val-oxazolone) | self-aminoacylation (biotinyl-Met-oxazolone) | self-aminoacylation (biotinyl-Ile-oxazolone) | self-aminoacylation (biotinyl-Phe-oxazolone) | self-aminoacylation (biotinyl-Leu-oxazolone) |
| --- | --- | --- | --- | --- | --- | --- |
| AGUCACCUAGGUAAUCGGGUG [Fam2.2 aminoacylation ribozyme variant] | 3.64 | 2.75 | 3.4 | 3.27 | 25.4 | 3.37 |
| AGUCACCUAGGUCAGCGGGUG [Fam2.2 aminoacylation ribozyme variant] | 5.59 | 3.77 | 4.31 | 4.2 | 39.5 | 5.54 |
| AGUCCCCUAGGUCAUCGGGUG [Fam2.2 aminoacylation ribozyme variant] | 11.4 | 7.97 | 12 | 8.61 | 93.9 | 16.9 |
| AUAACCCAGGUCAUCGAGUGA [Fam2.1 aminoacylation ribozyme variant] | 6.13 | 2.95 | 5.5 | 2.67 | 19.3 | 4.72 |
| AUAACCCGGGUCAUCGAGUGA [Fam2.1 aminoacylation ribozyme variant] | 7.61 | 3.29 | 6.42 | 3.78 | 45.7 | 8.98 |
| AUAACCCUCGUCAUCGAGUGA [Fam2.1 aminoacylation ribozyme variant] | 3.79 | 2.13 | 3.43 | 1.89 | 10.7 | 3.59 |
| AUAACCCUGGGCAUCGAGUGA [Fam2.1 aminoacylation ribozyme variant] | 6.57 | 2.59 | 5.93 | 3 | 33.7 | 6 |
| AUAACCCUGGUCACCGAGUGA [Fam2.1 aminoacylation ribozyme variant] | 10.2 | 4.06 | 8.82 | 4.78 | 44 | 9.68 |
| AUAACCCUGGUCAUCGAGUGA [Fam2.1 aminoacylation ribozyme variant] | 18.7 | 8.59 | 19.7 | 8.43 | 69.1 | 18.8 |
| AUAACCCUGGUGAUCGAGUGA [Fam2.1 aminoacylation ribozyme variant] | 7.08 | 3.03 | 6.53 | 3.03 | 36.3 | 6.37 |
| AUAACCCUGUUCAUCGAGUGA [Fam2.1 aminoacylation ribozyme variant] | 4.29 | 2.18 | 3.8 | 2.21 | 12.6 | 3.97 |
| AUACACCAAGGUCAUCGGGUG [Fam2.2 aminoacylation ribozyme variant] | 6.72 | 3.5 | 4.18 | 4.48 | 42.2 | 6.13 |
| AUACACCUAGGUCAUCGCGUG [Fam2.2 aminoacylation ribozyme variant] | 8.07 | 5.01 | 8.65 | 4.68 | 69.7 | 10.4 |
| AUACACCUAGGUCAUCGGGUA [Fam2.2 aminoacylation ribozyme variant] | 5.56 | 4.43 | 5.4 | 4.01 | 8.32 | 6.85 |
| AUACACCUAGGUCAUCGGUUG [Fam2.2 aminoacylation ribozyme variant] | 1.54 | 1.24 | 1.44 | 1.1 | 3.92 | 1.31 |
| AUACACCUAGGUGAUCGGGUG [Fam2.2 aminoacylation ribozyme variant] | 4.59 | 2.6 | 3.56 | 3.87 | 16.4 | 3.88 |
| AUACACGUAGGUCAUCGGGUG [Fam2.2 aminoacylation ribozyme variant] | 3.2 | 2.67 | 3.63 | 2.19 | 17.3 | 3.2 |
| AUACAGCUAGGUCAUCGGGUG [Fam2.2 aminoacylation ribozyme variant] | 3.64 | 3.09 | 2.96 | 3.25 | 25.1 | 4.04 |
| AUACCCCUAGGUCAUCGGGUG [Fam2.2 aminoacylation ribozyme variant] | 7.88 | 5.95 | 8.28 | 5.22 | 71.2 | 10.7 |
| AUACCCCUGGUCAUCGAGUGA [Fam2.1 aminoacylation ribozyme variant] | 7.04 | 2.88 | 6.17 | 3.42 | 7.63 | 5.62 |
| AUACUUCAAACAAUCGGUCAG [Fam1A.1 aminoacylation ribozyme variant] | 1.88 | 0.891 | 0.672 | 0.82 | 3.2 | 0.728 |
